Reference: US6060451

Assays:
[1] = biological target: bovine α-thrombin (bovine) (UniProt P00735); assay: inhibition of thrombin-mediated hydrolysis of Tosyl-Gly-Pro-Arg-AMC (fluorogenic amidolytic assay)
human α-thrombin (human) [2] = biological target: human α-thrombin (human) (UniProt P00734); assay: as above
[3] = biological target: bovine α-thrombin (bovine) (UniProt P00735)
human α-thrombin (human) [4] = biological target: human α-thrombin (human) (UniProt P00734)
thrombin = assay: Ki, antithrombin activity in vitro (amidolytic assay of thrombin activity)

“P51 hirudin^45-55 (from UniProt P01050) (peptide)” gave a Ki [1] of 720 nM and a Ki (human α-thrombin (human) [2]) of 110 nM.

Work on “P53 [D-Phe^45, Arg^47 ]hirudin^45-65 (peptide)” yielded an IC50, inhibition of fibrin clot formation [3] of 70 nM and an IC50, inhibition of fibrin clot formation (human α-thrombin (human) [4]) of 4 nM.

Substance “P54 [Thr^45, Arg^47, D-Pro^48 ]hirudin^45-65 (from UniProt P01050) (peptide)” has a Ki (human α-thrombin (human) [2]) of 72 nM.

Substance “P73 [D-Phe^45, Ala^47 ]hirudin^45-65 (from UniProt P01050) (peptide)” has a Ki (human α-thrombin (human) [2]) of 41 nM.

For r-Hirudin HV2 (from UniProt P09945), the Ki (thrombin) was 0.0004 nM and the Ki (human α-thrombin (human) [2]) was 0.00038 nM.
